The assay deals with TRα1PV (mutated thyroid hormone receptor α1 carrying the PV mutation) (UniProt P10827). As to the kind of experiment: co-IP.

Substance “nuclear receptor corepressor, NCoR1 (from UniProt Q60974 1-2453) (natural protein)” registered a fold NCoR1 co-precipitated relative to TRβ1PV (before induction) of 1.6 fold and a fold NCoR1 co-precipitated relative to TRβ1PV (day 6 after induction) of 2 fold.
